In publication PMC2685113:

Biological target: streptavidin (UniProt P22629 25-183)
Assay: EMSA

Chain of streptavidin (P22629 25-183): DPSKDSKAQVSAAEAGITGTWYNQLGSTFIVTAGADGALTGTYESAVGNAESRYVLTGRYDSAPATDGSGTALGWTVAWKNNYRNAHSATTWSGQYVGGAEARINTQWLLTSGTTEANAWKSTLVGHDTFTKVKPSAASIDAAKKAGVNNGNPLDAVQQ

B1: S1-77 (structured_RNA)
RNA: GGGCCAUCGAUGCGGCCGCCGACCAGAAUCAUGCAAGUGCGUAAGAUAGUCGCGGGUCGGCGGCCGCAUCGAUGGCC
B1: binds.
